Test [1] deals with Biotinylated SARS-CoV-2 (Wuhan) RBD (SARS-CoV-2 (Wuhan), UniProt P0DTC2, biotin (EZ-Link Sulfo-NHS-LC-biotin per p-0040; Lys15 biotinylation site within the N-terminal AviTag per fig-0003 and p-0075)). As to the kind of experiment: SPR. The settings on record: both partners purified.
For test [2], the target named is Soluble monovalent SARS-CoV-2 RBD (RBD-H) (SARS-CoV-2 (Wuhan, assumed), UniProt P0DTC2). As to the kind of experiment: SPR. The settings on record: both partners purified.

B1: REGN10987 therapeutic antibody (antibody, V domains shown)
VH: QVQLVESGGGVVQPGRSLRLSCAASGFTFSNYAMYWVRQAPGKGLEWVAVISYDGSNKYYADSVKGRFTISRDNSKNTLYLQMNSLRTEDTAVYYCASGSDYGDYLLVYWGQGTLVTVSS
VL: QSALTQPASVSGSPGQSITISCTGTSSDVGGYNYVSWYQQHPGKAPKLMIYDVSKRPSGVSNRFSGSKSGNTASLTISGLQSEDEADYYCNSLTSISTWVFGGGTKLTVL
notes: source: ExpiCHO, transfected, purified (MabSelect SuRe); copies: 2 + 2
As to B1, in test [1], the binding result is on record as “binds”.

B2: FI-3A antibody (antibody, V domains shown)
VH: EVQLLESGGGLIQPGGSLRLSCAASGFTVSSNYMSWVRQAPGKGLEWVSVIYSGGSTYYADSVKGRFTISRDNSKNTLYLQMNSLRAEDTAVYYCARDHVRPGMNIWGQGTMVTVSS
VL: not shown
notes: as for B1
As to B2, the binding result in test [1] and in test [2] was “binds” each time.

B3: FD-11A IgG1 antibody (antibody, V domains shown)
VH: EVQLVESGGGVVQPGRSLRLSCAASGFTFSSYGMHWVRQAPGKGLEWVAVIWYDGSNKYYADSVKGRFTISRDNSKNTLYLQMNSLRAEDTAVYYCAKGPDILTGYYNYYYYGMDVWGQGTMVTVSS
VL: QSVLTQPPSVSGAPGQRVTISCTGSSSNIGAGYDVHWYQQLPGTAPKLLIYGNSNRPSGVPDRFSGSKSGTSASLAITGLQAEDEADYYCQSYDSSLSGFYVVFGGGTKLTVL
notes: also called IgG1 FD-11A; source: ExpiCHO, transfected, purified (MabSelect SuRe); copies: 2 + 2
On to B3, for which, in test [1], the Kd (as a rule, a measure of binding affinity in units of concentration) worked out at 1230 nM. That is a single-digit micromolar value.

B4: FD-5D antibody (antibody, V domains shown)
VH: EVQLVESGGGLVQPGGSLRLSCAASGFTFSSYSMNWVRQAPGKGLEWVSYISSSSSTIYYADSVKGRFTISRDNAKNSLYLQMNSLRAEDTAVYYCASPGGITAAGTSVLFGYYGMDVWGQGTTVTVSS
VL: not shown
notes: as for B1
Take B4: the binding result in test [1] and in test [2] was “binds” in each case.

B5: EY6A antibody (antibody, V domains shown)
VH: EVQLVESGGGVVQPGRSLRLSCAASAFTFSSYDMHWVRQAPGKGLEWVAVISYDGSNKYYADSVKGRFTISRDNSKNTLYLQMNSLRAEDTAVYYCAKDGGKLWVYYFDYWGQGTLVTVSS
VL: not shown
notes: as for B1
For the molecule B5, the binding result in test [1] and in test [2] was “binds” each time.
